Measurements as given in the supplement of paper PMC10567573.

B1: CAMK2A (parent)
chain: CIQQILEAVLHCHQMGVVHRDLKP

Variants of: B1
Assay: protein stability index of a GFP-peptide fusion (GPS, HEK-293T) (PSI 1-6); higher = more stable
Conditions: c terminus: a fixed tail appended
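Further: lentivirally expressed fusions sorted by FACS into six bins by GFP to DsRed ratio, PSI derived from sequencing read proportions per bin multiplied by bin number.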

Protein stability index, by site and new letter:
A8: W 4.4; Q 2.42; H 2.39; F 3.18; K 2.86; R 1.5
P24: L 1.78; G 2.88; W 1.82; Y 3; K 2.31; C 1.95; D 2.99
H13: W 1.27; E 2.49; Y 3.92; M 2.07; Q 1.22; N 2.28; C 2.35; I 2.85
D21: W 3.37; K 4.29; M 2.17; A 4.17; T 2.36; S 1.66; H 2.62
R20: L 2.54; Y 2.17; I 1.85; K 2.66; F 1.97; E 3.3; G 2.37; P 1.77
I2: A 2.45; G 1.99; W 1.35
H11: D 3.55; P 1.69; I 3.32; K 1.72; Q 1.9
G16: H 2.16; V 1.3; K 1.11; P 2.69; W 1.79; C 2.97; R 1.6; Q 3.06
I5: T 2.89; C 3.12; E 2.3; M 4.53; Q 1.73; P 1.81; K 2.16; N 1.71; D 2.65
V9: L 3.23; Y 3.08; I 2.04; R 2.01; Q 1.96; E 1.87; T 2.86; H 2.35; G 2
C1: M 4.15; W 1.78; H 1.56; V 2.22; I 3.46; R 2.22; Y 2.37; Q 1.13; K 2.82
Q14: Y 3.42; T 3.88; K 3.21; I 2.86; D 3.09; F 2.94; N 1.28; W 2.76; R 1.94; S 2.83; P 2; C 2.78
L22: R 1.03; I 3.05; P 1.82; T 3.01; H 1.99; K 2.53; W 2.28; E 2.96; F 2.66
M15: W 3.1; I 2.31; H 2.24; F 1.84; S 2.6; P 1.81; N 1.52; C 2.85; V 2.57; G 2.05; D 1.8
K23: S 1.65; P 2.63; H 3.03; R 3.33; L 2.73; W 3.83; D 3.12; I 2.2
L10: S 2.21; R 2.37; M 3.74; N 2.05; W 4.24; H 2.19; G 1.67; V 3.33
Q3: P 3.19; C 3.04; A 3.85; F 2.24; K 2.77; V 3.85
C12: V 2.82; E 2.58; N 3.26; H 2.98; A 2.34; K 1.82; P 1.53; R 4.86; W 2.65
E7: V 1.8; D 3.99; I 2.74; Y 4.43; T 1.99; A 2.02; C 3.72; M 4.26; G 4.42; F 2.42
H19: E 3.29; M 2.59; Y 2.79; T 3.67; C 1.84; I 2.01
L6: T 1.69; H 1.77; Q 2.09; P 1.83; F 1.07; C 1.84; S 1.71; K 2.4; G 2.14
